The record followed here is PMC8501228 (Cell Reports, 2021).

For this assay, the target named is SARS-CoV-2 Spike S1, 6x His-tagged recombinant protein (16-685 aa, YP_009724390.1) (SARS-CoV-2, UniProt P0DTC2 16-685). Kind of assay: ELISA.

B1: galectin-8 (LGALS8) recombinant protein (1-317 aa, AAF19370.1) (natural protein)
chain: MMLSLNNLQNIIYNPVIPFVGTIPDQLDPGTLIVIRGHVPSDADRFQVDLQNGSSMKPRADVAFHFNPRFKRAGCIVCNTLINEKWGREEITYDTPFKREKSFEIVIMVLKDKFQVAVNGKHTLLYGHRIGPEKIDTLGIYGKVNIHSIGFSFSSDLQSTQASSLELTEISRENVPKSGTPQLRLPFAARLNTPMGPGRTVVVKGEVNANAKSFNVDLLAGKSKDIALHLNPRLNIKAFVRNSFLQESWGEEERNITSFPFSPGMYFEMIIYCDVREFKVAVNGVHSLEYKHRFKELSSIDTLEINGDIHLLEVRSW
Regarding B1, the binding result is “binds”.
